Here are results for one protein from article PMC4335309 (Journal of molecular biology, 2009).

This series concerns the molecule itself. Description: crystal structure.

B1: MukB-D (MukB construct 566–863: hinge domain with part of the coiled coil domain) (domain or fragment, Escherichia coli, UniProt P22523 566-863, looked up)
chain: IASLSDSVSNAREERMALRQEQEQLQSRIQSLMQRAPVWLAAQNSLNQLSEQCGEEFTSSQDVTEYLQQLLEREREAIVERDEVGARKNAVDEEIERLSQPGGSEDQRLNALAERFGGVLLSEIYDDVSLEDAPYFSALYGPSRHAIVVPDLSQVTEHLEGLTDCPEDLYLIEGDPQSFDDSVFSVDELEKAVVVKIADRQWRYSRFPEVPLFGRAARESRIESLHAEREVLSERFATLSFDVQKTQRLHQAFSRFIGSHLAVAFESDPEAEIRQLNSRRVELERALSNHENDNQQQR
In the case of B1, the binding result is reported as “binds”.
